Experiment [1] concerns the target integrin αvβ3 (Homo sapiens, UniProt P05106+P06756). Nature of the experiment: Integrin αvβ3 competition binding assay (competition fluorescence polarisation, FITC-LC-GRGDSP ligand). The conditions noted are these: relative to thioether linked Reference Example 1. On the procedure:
The peptide ligands of the examples and the reference examples were tested in the above mentioned assay.
The following reference peptide ligands having a TBMB or TATA scaffold with three thioether linkages to cysteine residues of the specified peptide sequences were prepared and evaluated for affinity to integrin αvβ3 as described in detail in our earlier application GB1800598.3 filed 15 Jan. 2018.
Background: Polarisation of emitted light reports the rotation of a fluorescent probe.

Experiment [2] concerns the target integrin αvβ3. Nature of the experiment: competition fluorescence polarisation, 5 nM FITC-LC-GRGDSP tracer; n1.
Experiment [3] deals with integrin αvβ3. Nature of the experiment: competition fluorescence polarisation, 5 nM FITC-LC-GRGDSP tracer; n2.

Starred links: 1 amine or outer side, 2 acyl side, 3 side chain; linkers in the order of their positions; H or OH if unused. Positions of bridges follow the written chain, without caps; N, C: chain ends. Non-standard residues stand in square brackets, D forms with d. No end group written: not given here. TBMB = c1c(C[*:1])cc(C[*:3])cc1C[*:2]; Dap(Me) = CNC[C@H](N)C(=O)O Bounds are passed on as bounds.

Turning to “[Ac]A[Dap(Me)]ILRPN[Dap(Me)]DLDGR[Dap(Me)]A [BCY00009181]”, the “binding affinity to integrin αvβ3 (in words)” value in experiment [1] was “larger drop in the measured affinity”.

B1: BCY00009181 (peptide)
peptide: Ac-A[Dap(Me)]ILRPN[Dap(Me)]DLDGR[Dap(Me)]A
modifications: linker 2-8-14 via TBMB
A word on the Ki: it is a measure of affinity in units of concentration, obtained from inhibition or displacement. Turning to B1, the Ki in experiment [2] and in experiment [3] was more than 18.6 µM each time.

For the origin of these results see patent US20210147485A1, “PEPTIDE LIGANDS FOR BINDING TO INTEGRIN” (BicycleTx Limited, priority 2018, published 2021).
